Test results as given in the supplement of paper PMC6757056.
± gives the standard deviation of the averaged measurements.

B1: library; a variant is named by its letters at N, in order (parent)
chain: GCUGUCACCGGUGCUUGGUACGUUAUAUUCAGCCGGUCUGAUGAGUCUNNNNNNAGACGAAACAGC

How the values were obtained:
(6R,S)-folinic acid [1] = variants of: B1; assay: normalized RNA/DNA level without ligand (relative to sTRSVctl = 100) (log10 (% of sTRSVctl)); HEK293T overexpressing SLC46A1; higher = less ribozyme self-cleavage, higher mRNA level; details: without (6R,S)-folinic acid; ligand present: no
Outline: (§1)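 HEK293T cells received ligand, where used, 1 h before being transfected with 4 µg per 6-well well of library plasmids encoding reporter-linked ribozyme switches. After 72 h, RNA was extracted with EDTA and sequenced. RNA level was derived from RNA reads per DNA read, normalized to a spiked-in non-cleaving sequence or the top sequences, then scaled and log-transformed. Values were ×100 then log10, the top set was 25 sequences, and the minimum was 100 DNA reads.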

(6R,S)-folinic acid [2] = variants of: B1; assay: normalized RNA/DNA level with ligand (relative to sTRSVctl = 100) (log10 (% of sTRSVctl)); HEK293T overexpressing SLC46A1; ligand concentration (+) RNA-Seq: 6 mM; higher = less ribozyme self-cleavage, higher mRNA level; details: with (6R,S)-folinic acid; ligand present: yes
Outline: as §1

GGACAG
normalized RNA/DNA level without ligand (log10) ((6R,S)-folinic acid [1]): 1.954 ± 0.0092 | normalized RNA/DNA level with ligand (log10) ((6R,S)-folinic acid [2]): 1.99 ± 0.052

GGACAU
normalized RNA/DNA level without ligand (log10) ((6R,S)-folinic acid [1]): 2.018 ± 0.011 | normalized RNA/DNA level with ligand (log10) ((6R,S)-folinic acid [2]): 2.011 ± 0.016

GGACAC
normalized RNA/DNA level without ligand (log10) ((6R,S)-folinic acid [1]): 2.013 ± 0.013 | normalized RNA/DNA level with ligand (log10) ((6R,S)-folinic acid [2]): 2.03 ± 0.039

CGAGGA
normalized RNA/DNA level without ligand (log10) ((6R,S)-folinic acid [1]): 2.019 ± 0.0022 | normalized RNA/DNA level with ligand (log10) ((6R,S)-folinic acid [2]): 2.04 ± 0.029

CGAGGU
normalized RNA/DNA level without ligand (log10) ((6R,S)-folinic acid [1]): 2.02 ± 0.02 | normalized RNA/DNA level with ligand (log10) ((6R,S)-folinic acid [2]): 2.02 ± 0.054

CGAGGC
normalized RNA/DNA level without ligand (log10) ((6R,S)-folinic acid [1]): 2.03 ± 0.013 | normalized RNA/DNA level with ligand (log10) ((6R,S)-folinic acid [2]): 2.04 ± 0.031

UGAGAC
normalized RNA/DNA level without ligand (log10) ((6R,S)-folinic acid [1]): 1.912 ± 0.011 | normalized RNA/DNA level with ligand (log10) ((6R,S)-folinic acid [2]): 1.98 ± 0.028

GGAGAG
normalized RNA/DNA level without ligand (log10) ((6R,S)-folinic acid [1]): 1.85 ± 0.02 | normalized RNA/DNA level with ligand (log10) ((6R,S)-folinic acid [2]): 1.97 ± 0.038

UGACCG
normalized RNA/DNA level without ligand (log10) ((6R,S)-folinic acid [1]): 1.983 ± 0.0022 | normalized RNA/DNA level with ligand (log10) ((6R,S)-folinic acid [2]): 2.01 ± 0.023

UGACCU
normalized RNA/DNA level without ligand (log10) ((6R,S)-folinic acid [1]): 2.058 ± 0.011 | normalized RNA/DNA level with ligand (log10) ((6R,S)-folinic acid [2]): 2.06 ± 0.034

UGACCC
normalized RNA/DNA level without ligand (log10) ((6R,S)-folinic acid [1]): 2.041 ± 0.011 | normalized RNA/DNA level with ligand (log10) ((6R,S)-folinic acid [2]): 2.02 ± 0.026

GGCAAA
normalized RNA/DNA level without ligand (log10) ((6R,S)-folinic acid [1]): 2.069 ± 0.0036 | normalized RNA/DNA level with ligand (log10) ((6R,S)-folinic acid [2]): 2.04 ± 0.044

GGCAAG
normalized RNA/DNA level without ligand (log10) ((6R,S)-folinic acid [1]): 2.034 ± 0.007 | normalized RNA/DNA level with ligand (log10) ((6R,S)-folinic acid [2]): 2.003 ± 0.017

GGCAAU
normalized RNA/DNA level without ligand (log10) ((6R,S)-folinic acid [1]): 2.057 ± 0.01 | normalized RNA/DNA level with ligand (log10) ((6R,S)-folinic acid [2]): 2.04 ± 0.03

GGCAAC
normalized RNA/DNA level without ligand (log10) ((6R,S)-folinic acid [1]): 2.057 ± 0.0039 | normalized RNA/DNA level with ligand (log10) ((6R,S)-folinic acid [2]): 2.04 ± 0.0099

AGAGAC
normalized RNA/DNA level without ligand (log10) ((6R,S)-folinic acid [1]): 1.981 ± 0.0066 | normalized RNA/DNA level with ligand (log10) ((6R,S)-folinic acid [2]): 2.009 ± 0.016

AGAGAU
normalized RNA/DNA level without ligand (log10) ((6R,S)-folinic acid [1]): 1.982 ± 0.011 | normalized RNA/DNA level with ligand (log10) ((6R,S)-folinic acid [2]): 1.99 ± 0.023

AGAGAA
normalized RNA/DNA level without ligand (log10) ((6R,S)-folinic acid [1]): 1.953 ± 0.0039 | normalized RNA/DNA level with ligand (log10) ((6R,S)-folinic acid [2]): 1.99 ± 0.025

AGAGAG
normalized RNA/DNA level without ligand (log10) ((6R,S)-folinic acid [1]): 1.67 ± 0.022 | normalized RNA/DNA level with ligand (log10) ((6R,S)-folinic acid [2]): 1.966 ± 0.015

AGACAU
normalized RNA/DNA level without ligand (log10) ((6R,S)-folinic acid [1]): 1.994 ± 0.0052 | normalized RNA/DNA level with ligand (log10) ((6R,S)-folinic acid [2]): 2.02 ± 0.026

AGACAC
normalized RNA/DNA level without ligand (log10) ((6R,S)-folinic acid [1]): 2.0193 ± 0.00083 | normalized RNA/DNA level with ligand (log10) ((6R,S)-folinic acid [2]): 2.01 ± 0.028

AGACAA
normalized RNA/DNA level without ligand (log10) ((6R,S)-folinic acid [1]): 2.004 ± 0.0066 | normalized RNA/DNA level with ligand (log10) ((6R,S)-folinic acid [2]): 2.01 ± 0.03

CGACGC
normalized RNA/DNA level without ligand (log10) ((6R,S)-folinic acid [1]): 2.03 ± 0.0041 | normalized RNA/DNA level with ligand (log10) ((6R,S)-folinic acid [2]): 2.01 ± 0.038

CGACGG
normalized RNA/DNA level without ligand (log10) ((6R,S)-folinic acid [1]): 1.926 ± 0.014 | normalized RNA/DNA level with ligand (log10) ((6R,S)-folinic acid [2]): 1.973 ± 0.015

CGACGU
normalized RNA/DNA level without ligand (log10) ((6R,S)-folinic acid [1]): 1.995 ± 0.002 | normalized RNA/DNA level with ligand (log10) ((6R,S)-folinic acid [2]): 2.02 ± 0.021

CGACGA
normalized RNA/DNA level without ligand (log10) ((6R,S)-folinic acid [1]): 2.001 ± 0.011 | normalized RNA/DNA level with ligand (log10) ((6R,S)-folinic acid [2]): 2 ± 0.05

UGAGGC
normalized RNA/DNA level without ligand (log10) ((6R,S)-folinic acid [1]): 1.982 ± 0.0067 | normalized RNA/DNA level with ligand (log10) ((6R,S)-folinic acid [2]): 1.98 ± 0.073

UGAGGU
normalized RNA/DNA level without ligand (log10) ((6R,S)-folinic acid [1]): 1.918 ± 0.017 | normalized RNA/DNA level with ligand (log10) ((6R,S)-folinic acid [2]): 2.02 ± 0.032

CGCAAG
normalized RNA/DNA level without ligand (log10) ((6R,S)-folinic acid [1]): 2.011 ± 0.0045 | normalized RNA/DNA level with ligand (log10) ((6R,S)-folinic acid [2]): 2.02 ± 0.025

CGCAAA
normalized RNA/DNA level without ligand (log10) ((6R,S)-folinic acid [1]): 1.9697 ± 0.001 | normalized RNA/DNA level with ligand (log10) ((6R,S)-folinic acid [2]): 1.988 ± 0.0069

CGCAAU
normalized RNA/DNA level without ligand (log10) ((6R,S)-folinic acid [1]): 1.9357 ± 0.0015 | normalized RNA/DNA level with ligand (log10) ((6R,S)-folinic acid [2]): 1.968 ± 0.014

GGCCAG
normalized RNA/DNA level without ligand (log10) ((6R,S)-folinic acid [1]): 2.037 ± 0.0046 | normalized RNA/DNA level with ligand (log10) ((6R,S)-folinic acid [2]): 2.016 ± 0.02

GGCCAC
normalized RNA/DNA level without ligand (log10) ((6R,S)-folinic acid [1]): 2.022 ± 0.0039 | normalized RNA/DNA level with ligand (log10) ((6R,S)-folinic acid [2]): 1.99 ± 0.016

UGCAGU
normalized RNA/DNA level without ligand (log10) ((6R,S)-folinic acid [1]): 1.9094 ± 0.0015 | normalized RNA/DNA level with ligand (log10) ((6R,S)-folinic acid [2]): 1.96 ± 0.026

UGCAGC
normalized RNA/DNA level without ligand (log10) ((6R,S)-folinic acid [1]): 1.982 ± 0.0063 | normalized RNA/DNA level with ligand (log10) ((6R,S)-folinic acid [2]): 2.012 ± 0.018

UGAUUU
normalized RNA/DNA level without ligand (log10) ((6R,S)-folinic acid [1]): 1.9907 ± 0.00083 | normalized RNA/DNA level with ligand (log10) ((6R,S)-folinic acid [2]): 2.02 ± 0.023

UGAUUC
normalized RNA/DNA level without ligand (log10) ((6R,S)-folinic acid [1]): 2.058 ± 0.0048 | normalized RNA/DNA level with ligand (log10) ((6R,S)-folinic acid [2]): 2.04 ± 0.04

CGAUCA
normalized RNA/DNA level without ligand (log10) ((6R,S)-folinic acid [1]): 2.008 ± 0.0093 | normalized RNA/DNA level with ligand (log10) ((6R,S)-folinic acid [2]): 2.04 ± 0.05

CGAUCG
normalized RNA/DNA level without ligand (log10) ((6R,S)-folinic acid [1]): 2.042 ± 0.013 | normalized RNA/DNA level with ligand (log10) ((6R,S)-folinic acid [2]): 2.05 ± 0.034

CGAUCU
normalized RNA/DNA level without ligand (log10) ((6R,S)-folinic acid [1]): 2.062 ± 0.0057 | normalized RNA/DNA level with ligand (log10) ((6R,S)-folinic acid [2]): 2.06 ± 0.03

CGAUCC
normalized RNA/DNA level without ligand (log10) ((6R,S)-folinic acid [1]): 2.05 ± 0.023 | normalized RNA/DNA level with ligand (log10) ((6R,S)-folinic acid [2]): 2.06 ± 0.036

AGAAGG
normalized RNA/DNA level without ligand (log10) ((6R,S)-folinic acid [1]): 1.931 ± 0.019 | normalized RNA/DNA level with ligand (log10) ((6R,S)-folinic acid [2]): 2.01 ± 0.037

AGAAGU
normalized RNA/DNA level without ligand (log10) ((6R,S)-folinic acid [1]): 1.938 ± 0.007 | normalized RNA/DNA level with ligand (log10) ((6R,S)-folinic acid [2]): 1.9746 ± 0.00065

GGAAGG
normalized RNA/DNA level without ligand (log10) ((6R,S)-folinic acid [1]): 1.95 ± 0.022 | normalized RNA/DNA level with ligand (log10) ((6R,S)-folinic acid [2]): 2.03 ± 0.04

GGAAGU
normalized RNA/DNA level without ligand (log10) ((6R,S)-folinic acid [1]): 1.978 ± 0.0031 | normalized RNA/DNA level with ligand (log10) ((6R,S)-folinic acid [2]): 2.01 ± 0.032

GGAAUA
normalized RNA/DNA level without ligand (log10) ((6R,S)-folinic acid [1]): 2.022 ± 0.0049 | normalized RNA/DNA level with ligand (log10) ((6R,S)-folinic acid [2]): 2.04 ± 0.04

AGCAAU
normalized RNA/DNA level without ligand (log10) ((6R,S)-folinic acid [1]): 1.995 ± 0.0032 | normalized RNA/DNA level with ligand (log10) ((6R,S)-folinic acid [2]): 2.01 ± 0.033

AGCAAC
normalized RNA/DNA level without ligand (log10) ((6R,S)-folinic acid [1]): 2.004 ± 0.0095 | normalized RNA/DNA level with ligand (log10) ((6R,S)-folinic acid [2]): 2.01 ± 0.038

AGCAAG
normalized RNA/DNA level without ligand (log10) ((6R,S)-folinic acid [1]): 1.935 ± 0.0032 | normalized RNA/DNA level with ligand (log10) ((6R,S)-folinic acid [2]): 2.01 ± 0.025

CGACCG
normalized RNA/DNA level without ligand (log10) ((6R,S)-folinic acid [1]): 1.991 ± 0.007 | normalized RNA/DNA level with ligand (log10) ((6R,S)-folinic acid [2]): 1.99 ± 0.018

CGACCU
normalized RNA/DNA level without ligand (log10) ((6R,S)-folinic acid [1]): 2.061 ± 0.0049 | normalized RNA/DNA level with ligand (log10) ((6R,S)-folinic acid [2]): 2.016 ± 0.013

CGACCC
normalized RNA/DNA level without ligand (log10) ((6R,S)-folinic acid [1]): 2.05 ± 0.028 | normalized RNA/DNA level with ligand (log10) ((6R,S)-folinic acid [2]): 2.02 ± 0.051

CGACCA
normalized RNA/DNA level without ligand (log10) ((6R,S)-folinic acid [1]): 2.079 ± 0.0068 | normalized RNA/DNA level with ligand (log10) ((6R,S)-folinic acid [2]): 2.03 ± 0.034

AGCCAG
normalized RNA/DNA level without ligand (log10) ((6R,S)-folinic acid [1]): 1.985 ± 0.0073 | normalized RNA/DNA level with ligand (log10) ((6R,S)-folinic acid [2]): 2.04 ± 0.035

AGCCAU
normalized RNA/DNA level without ligand (log10) ((6R,S)-folinic acid [1]): 1.986 ± 0.013 | normalized RNA/DNA level with ligand (log10) ((6R,S)-folinic acid [2]): 1.99 ± 0.029

AGCCAA
normalized RNA/DNA level without ligand (log10) ((6R,S)-folinic acid [1]): 1.9858 ± 0.00027 | normalized RNA/DNA level with ligand (log10) ((6R,S)-folinic acid [2]): 1.99 ± 0.037

AGCCAC
normalized RNA/DNA level without ligand (log10) ((6R,S)-folinic acid [1]): 2.016 ± 0.003 | normalized RNA/DNA level with ligand (log10) ((6R,S)-folinic acid [2]): 2 ± 0.037

CGAAUC
normalized RNA/DNA level without ligand (log10) ((6R,S)-folinic acid [1]): 2.05 ± 0.019 | normalized RNA/DNA level with ligand (log10) ((6R,S)-folinic acid [2]): 2.03 ± 0.034
